Test results: patent US20210388087A1 (Chugai, published 2021)
Numbering of substitutions follows the chain as printed.

B1: CE115HA000 Y58L (antibody, human IgG1, kappa, L234A L235A, N297A, name in Kabat numbering)
heavy: QVQLVESGGGVVQPGRSLRLSCAASGFTFSNAWMHWVRQAPGKGLEWVAQIKAKSNNYATLYAESVKGRFTISRDDSKNSLYLQMNSLKTEDTAVYYCRYVHYGAYYGVDAWGQGTTVTVSSASTKGPSVFPLAPSSKSTSGGTAALGCLVKDYFPEPVTVSWNSGALTSGVHTFPAVLQSSGLYSLSSVVTVPSSSLGTQTYICNVNHKPSNTKVDKKVEPKSCDKTHTCPPCPAPEAAGGPSVFLFPPKPKDTLMISRTPEVTCVVVDVSHEDPEVKFNWYVDGVEVHNAKTKPREEQYASTYRVVSVLTVLHQDWLNGKEYKCKVSNKALPAPIEKTISKAKGQPREPQVYTLPPSRCELTKNQVSLSCAVKGFYPSDIAVEWESNGQPENNYKTTPPVLDSDGSFFLVSKLTVDKSRWQQGNVFSCSVMHEALHNHYTQKSLSLSPDYKDDDDK
chain: EPKSSDKTHTCPPCPAPELLGGPSVFLFPPKPKDTLMISRTPEVTCVVVDVSHEDPEVKFNWYVDGVEVHNAKTKPREEQYNSTYRVVSVLTVLHQDWLNGKEYKCKVSNKALPAPIEKTISKAKGQPREPQVCTLPPSRDELTKNQVSLWCLVKGFYPSDIAVEWESNGQPENNYKTTPPVLDSDGSFFLYSKLTVDKSRWQQGNVFSCSVMHEALHNRYTQKSLSLSP
light: DIVMTQSPLSLPVTPGEPASISCRSSQSLVHSNRNTYLHWYQQKPGQAPRLLIYKVSNRFSGVPDRFSGSGSGTDFTLKISRVEAEDVGVYYCGQGTQVPYTFGQGTKLEIKRTVAAPSVFIFPPSDEQLKSGTASVVCLLNNFYPREAKVQWKVDNALQSGNSQESVTEQDSKDSTYSLSSTLTLSKADYEKHKVYACEVTHQGLSSPVTKSFNRGEC
notes: one-arm antibody
B2: CE115HA000 Y100G (antibody, human IgG1, kappa, L234A L235A, N297A, name in Kabat numbering)
heavy: B1 heavy with L61Y, Y106G
chain: B1 chain
light: B1 light
notes: one-arm antibody
B3: CE115HA000 Y100V (antibody, human IgG1, kappa, L234A L235A, N297A, name in Kabat numbering)
heavy: B1 heavy with L61Y, Y106V
chain: B1 chain
light: B1 light
notes: one-arm antibody
B4: CE115HA000 Y100aD (antibody, human IgG1, kappa, L234A L235A, N297A, name in Kabat numbering)
heavy: B1 heavy with L61Y, Y107D
chain: B1 chain
light: B1 light
notes: one-arm antibody
B5: CE115HA000 Y58S (antibody, human IgG1, kappa, L234A L235A, N297A, name in Kabat numbering)
heavy: B1 heavy with L61S
chain: B1 chain
light: B1 light
notes: one-arm antibody
B6: CE115HA000 Y59E (antibody, human IgG1, kappa, L234A L235A, N297A, name in Kabat numbering)
heavy: B1 heavy with L61Y, Y62E
chain: B1 chain
light: B1 light
notes: one-arm antibody
B7: CE115HA000 Y97S (antibody, human IgG1, kappa, L234A L235A, N297A, name in Kabat numbering)
heavy: B1 heavy with L61Y, Y103S
chain: B1 chain
light: B1 light
notes: one-arm antibody
B8: CE115HA000 Y59S (antibody, human IgG1, kappa, L234A L235A, N297A, name in Kabat numbering)
heavy: B1 heavy with L61Y, Y62S
chain: B1 chain
light: B1 light
notes: one-arm antibody
B9: CE115HA000 Y100aQ (antibody, human IgG1, kappa, L234A L235A, N297A, name in Kabat numbering)
heavy: B1 heavy with L61Y, Y107Q
chain: B1 chain
light: B1 light
notes: one-arm antibody
B10: CE115HA000 Y100aF (antibody, human IgG1, kappa, L234A L235A, N297A, name in Kabat numbering)
heavy: B1 heavy with L61Y, Y107F
chain: B1 chain
light: B1 light
notes: one-arm antibody
B11: CE115HA000 Y59D (antibody, human IgG1, kappa, L234A L235A, N297A, name in Kabat numbering)
heavy: B1 heavy with L61Y, Y62D
chain: B1 chain
light: B1 light
notes: one-arm antibody
B12: CE115HA000 Y100L (antibody, human IgG1, kappa, L234A L235A, N297A, name in Kabat numbering)
heavy: B1 heavy with L61Y, Y106L
chain: B1 chain
light: B1 light
notes: one-arm antibody
B13: CE115HA000 Y97G (antibody, human IgG1, kappa, L234A L235A, N297A, name in Kabat numbering)
heavy: B1 heavy with L61Y, Y103G
chain: B1 chain
light: B1 light
notes: one-arm antibody
B14: CE115HA000 Y100P (antibody, human IgG1, kappa, L234A L235A, N297A, name in Kabat numbering)
heavy: B1 heavy with L61Y, Y106P
chain: B1 chain
light: B1 light
notes: one-arm antibody
B15: CE115HA000 Y100aK (antibody, human IgG1, kappa, L234A L235A, N297A, name in Kabat numbering)
heavy: B1 heavy with L61Y, Y107K
chain: B1 chain
light: B1 light
notes: one-arm antibody
B16: CE115HA000 Y100aA (antibody)
heavy: B1 heavy with L61Y, Y107A
Fc: B1 chain
light: B1 light
notes: one-arm antibody
B17: CE115HA000 Y100aL (antibody, human IgG1, kappa, L234A L235A, N297A, name in Kabat numbering)
heavy: B1 heavy with L61Y, Y107L
chain: B1 chain
light: B1 light
notes: one-arm antibody
B18: CE115HA000 Y59A (antibody, human IgG1, kappa, L234A L235A, N297A, name in Kabat numbering)
heavy: B1 heavy with L61Y, Y62A
chain: B1 chain
light: B1 light
notes: one-arm antibody
B19: CE115HA000 Y100K (antibody, human IgG1, kappa, L234A L235A, N297A, name in Kabat numbering)
heavy: B1 heavy with L61Y, Y106K
chain: B1 chain
light: B1 light
notes: one-arm antibody
B20: CE115HA000 Y58Q (antibody, human IgG1, kappa, L234A L235A, N297A, name in Kabat numbering)
heavy: B1 heavy with L61Q
chain: B1 chain
light: B1 light
notes: one-arm antibody
B21: CE115HA000 Y97A (antibody, human IgG1, kappa, L234A L235A, N297A, name in Kabat numbering)
heavy: B1 heavy with L61Y, Y103A
chain: B1 chain
light: B1 light
notes: one-arm antibody
B22: CE115HA000 Y100W (antibody, human IgG1, kappa, L234A L235A, N297A, name in Kabat numbering)
heavy: B1 heavy with L61Y, Y106W
chain: B1 chain
light: B1 light
notes: one-arm antibody
B23: CE115HA000 Y58N (antibody, human IgG1, kappa, L234A L235A, N297A, name in Kabat numbering)
heavy: B1 heavy with L61N
chain: B1 chain
light: B1 light
notes: one-arm antibody
B24: CE115HA000 Y100S (antibody, human IgG1, kappa, L234A L235A, N297A, name in Kabat numbering)
heavy: B1 heavy with L61Y, Y106S
chain: B1 chain
light: B1 light
notes: one-arm antibody
B25: CE115HA000 Y100D (antibody, human IgG1, kappa, L234A L235A, N297A, name in Kabat numbering)
heavy: B1 heavy with L61Y, Y106D
chain: B1 chain
light: B1 light
notes: one-arm antibody
B26: CE115HA000 Y97D (antibody, human IgG1, kappa, L234A L235A, N297A, name in Kabat numbering)
heavy: B1 heavy with L61Y, Y103D
chain: B1 chain
light: B1 light
notes: one-arm antibody
B27: CE115HA000 Y97R (antibody, human IgG1, kappa, L234A L235A, N297A, name in Kabat numbering)
heavy: B1 heavy with L61Y, Y103R
chain: B1 chain
light: B1 light
notes: one-arm antibody
B28: CE115HA000 Y100Q (antibody, human IgG1, kappa, L234A L235A, N297A, name in Kabat numbering)
heavy: B1 heavy with L61Y, Y106Q
chain: B1 chain
light: B1 light
notes: one-arm antibody
B29: CE115HA000 Y100aS (antibody, human IgG1, kappa, L234A L235A, N297A, name in Kabat numbering)
heavy: B1 heavy with L61Y, Y107S
chain: B1 chain
light: B1 light
notes: one-arm antibody
B30: CE115HA000 Y100aG (antibody, human IgG1, kappa, L234A L235A, N297A, name in Kabat numbering)
heavy: B1 heavy with L61Y, Y107G
chain: B1 chain
light: B1 light
notes: one-arm antibody
B31: CE115HA000 Y97P (antibody, human IgG1, kappa, L234A L235A, N297A, name in Kabat numbering)
heavy: B1 heavy with L61Y, Y103P
chain: B1 chain
light: B1 light
notes: one-arm antibody
B32: CE115HA000 Y100A (antibody)
heavy: B1 heavy with L61Y, Y106A
Fc: B1 chain
light: B1 light
notes: one-arm antibody

biological target: T1, CD3 epsilon homodimer protein (UniProt P07766 23-126); test: SPR, CD3 epsilon homodimer on chip, one-arm antibody as analyte;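 note: surface plasmon resonance at 25 °C with CD3 epsilon homodimer amine-coupled to a CM4 sensor chip, antibody injected as analyte, HBS-EP+ as running buffer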
T1 construct: also called CD3 (CD3 epsilon)
T1 sequence (P07766 23-126): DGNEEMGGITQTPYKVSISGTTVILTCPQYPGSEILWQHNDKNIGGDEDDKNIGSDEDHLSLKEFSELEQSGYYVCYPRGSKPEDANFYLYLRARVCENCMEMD
Method: An appropriate amount of CD3 epsilon homodimer protein was immobilized onto Sensor chip CM4 (GE Healthcare Japan Corp.) by the amine coupling method. Then, the antibody having an appropriate concentration was injected thereto as an analyte and allowed to interact with the CD3 epsilon homodimer protein on the sensor chip. Then, the sensor chip was regenerated by the injection of 10 mmol/L glycine-HCl (pH 1.5). The assay was conducted at 25 degrees C., and HBS-EP+(GE Healthcare Japan Corp.) was used as a running buffer. […] Each parameter was calculated using Biacore T200 Evaluation Software (GE Healthcare Japan Corp.).

In order of rising “KD ratio (KD of CE115HA000/KD of altered form)” value:
1. B9  0.51
2. B17  0.57
3. B29  0.59
4. B6  0.61
5. B25  0.63
6. B11  0.66
7. B16  0.66
8. B12  0.67
9. B24  0.7
10. B18  0.74
11. B28  0.77
12. B8  0.79
13. B15  0.79
14. B3  0.92
15. B32  0.92
16. B19  0.93
17. B22  0.96
18. B2  0.97
19. B10  0.98
20. B30  1.01
21. B4  1.2
22. B1  1.21
23. B5  1.22
24. B20  1.24
25. B14  1.3
26. B23  1.86
27. B26  65.7
28. B7  1180
29. B31  12400
30. B27  23200
31. B21  41300
32. B13  47200
